Results reported in US20150203577A1 (Chugai, published 2015).

How the values were obtained:
[1] = target: T1, mouse FcγRII extracellular domain, C-terminal His tag (mouse, UniProt P08101 30-210); test: SPR (Biacore T200), antibody captured on Protein L, mFcγR analyte
T1 construct: also called mFcγRII; mFcgRII
T1 sequence: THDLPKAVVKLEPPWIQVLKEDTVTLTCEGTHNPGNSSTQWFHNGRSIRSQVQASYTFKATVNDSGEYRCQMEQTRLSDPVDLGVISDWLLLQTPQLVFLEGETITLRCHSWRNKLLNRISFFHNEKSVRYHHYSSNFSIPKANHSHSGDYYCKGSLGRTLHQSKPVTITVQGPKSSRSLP
Description: (§1) Each altered antibody was analyzed for its interaction with each Fcγ receptor prepared above using Biacore T100 (GE Healthcare Japan Corp.), Biacore T200 (GE Healthcare Japan Corp.), Biacore A100, or Biacore 4000. The running buffer used was HBS-EP+ (GE Healthcare Japan Corp.). The assay temperature was set to 25° C. The sensor chips used were chips prepared by immobilizing Protein L (ACTIGEN or BioVision) onto Series S Sensor Chip CM5 (GE Healthcare Japan Corp.) or Series S Sensor Chip CM4 (GE Healthcare Japan Corp.) by the amine coupling method.
(§2) In order to calculate the KD value of each altered antibody for FcγR, kinetic analysis was conducted according to the following method: first, the antibody of interest was captured onto any of these chips and allowed to interact with mFcγR diluted with a running buffer. For the obtained sensorgram, the assay results were globally fit into the 1:1 Langmuir binding model using Biacore Evaluation Software to calculate an association rate constant ka (L/mol/s) and a dissociation rate constant kd (1/s). From these values, the dissociation constant KD (mol/L) was calculated.

[2] = target: T2, mouse FcγRIII extracellular domain, C-terminal His tag (mouse, UniProt P08508 31-215); test: as above
T2 construct: also called mFcγRIII; mFcgRIII
T2 chain: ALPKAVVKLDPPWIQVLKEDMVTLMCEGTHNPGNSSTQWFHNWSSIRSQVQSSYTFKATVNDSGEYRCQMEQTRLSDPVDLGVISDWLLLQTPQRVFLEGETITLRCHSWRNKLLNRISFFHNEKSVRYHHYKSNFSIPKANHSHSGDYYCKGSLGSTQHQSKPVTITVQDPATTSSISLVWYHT
Description: as §1, §2

Binder	Kd [1] [nM]	relative mFcγRII-binding activity (mIgG1 = 1) [1]	Kd [2] [nM]	relative mFcγRIII-binding activity (mIgG1 = 1) [2]
H237-MB535/MRAL-k0 (antibody, mouse IgG1, kappa, copies: 2 + 2) heavy: QVQLQESGPGLVKPSETLSLTCAVSGHSISHDHAWSWVRQPPGEGLEWIGFISYSGITNYNPSLQGRVTISRDNSKNTLYLQMNSLRAEDTAVYYCARSLARTTAMDYWGEGTLVTVSSAKTTPPSVYPLAPGSAAQTNSMVTLGCLVKGYFPEPVTVTWNSGSLSSGVHTFPAVLQSDLYTLSSSVTVPSSTWPSETVTCNVAHPASSTKVDKKIVPRDCGCKPCICQPNEVEEVFIFPPKPKDVLTITLTPKVTCVVVDISKDDPEVQFSWFVDDVEVHTAQTQPREEQFNLTFRSVSELPIMHQDWLNGKEFKCRVNSDAFPAPIERTISKTKGRPKAPQVYTIPPPKEQMAKDKVSLTCMITDFFPEDITVEWQWNGQPAENYKNTQPIMDTDGSYFVYSKLNVQKSNWEAGNTFTCSVLHEGLHNHHTEKSLSHSPGK light: not shown	0.498	422 fold vs H237-mIgG1/MRAL-k0	33.2	8.5 fold vs H237-mIgG1/MRAL-k0
H237-MB539/MRAL-k0 (antibody, mouse IgG1, kappa, copies: 2 + 2) heavy: QVQLQESGPGLVKPSETLSLTCAVSGHSISHDHAWSWVRQPPGEGLEWIGFISYSGITNYNPSLQGRVTISRDNSKNTLYLQMNSLRAEDTAVYYCARSLARTTAMDYWGEGTLVTVSSAKTTPPSVYPLAPGSAAQTNSMVTLGCLVKGYFPEPVTVTWNSGSLSSGVHTFPAVLQSDLYTLSSSVTVPSSTWPSETVTCNVAHPASSTKVDKKIVPRDCGCKPCICEPNEVEMVFIFPPKPKDVLTITLTPKVTCVVVDISKDDPEVQFSWFVDDVEVHTAQTQPREEQFNLTFRSVSELPIMHQDWLNGKEFKCRVDSAAFPAPIEKTISKTKGRPKAPQVYTIPPPKEQMAKDKVSLTCMITDFFPEDITVEWQWNGQPAENYKNTQPIMDTDGSYFVYSKLNVQKSNWEAGNTFTCSVLHEGLHNHHTEKSLSHSPGK light: not shown	2	105 fold vs H237-mIgG1/MRAL-k0	147	1.9 fold vs H237-mIgG1/MRAL-k0
H237-MB543/MRAL-k0 (antibody, mouse IgG1, kappa, copies: 2 + 2) heavy: QVQLQESGPGLVKPSETLSLTCAVSGHSISHDHAWSWVRQPPGEGLEWIGFISYSGITNYNPSLQGRVTISRDNSKNTLYLQMNSLRAEDTAVYYCARSLARTTAMDYWGEGTLVTVSSAKTTPPSVYPLAPGSAAQTNSMVTLGCLVKGYFPEPVTVTWNSGSLSSGVHTFPAVLQSDLYTLSSSVTVPSSTWPSETVTCNVAHPASSTKVDKKIVPRDCGCKPCICEPNEVEMVFIFPPKPKDVLTITLTPKVTCVVVDISKDDPEVQFSWFVDDVEVHTAQTQPREEQFNSTFRSVSELPIMHQDWLNGKEFKCRVDSAAFPAPIERTISKTKGRPKAPQVYTIPPPKEQMAKDKVSLTCMITDFFPEDITVEWQWNGQPAENYKNTQPIMDTDGSYFVYSKLNVQKSNWEAGNTFTCSVLHEGLHNHHTEKSLSHSPGK light: not shown	1.08	195 fold vs H237-mIgG1/MRAL-k0	126	2.2 fold vs H237-mIgG1/MRAL-k0
H237-MB542/MRAL-k0 (antibody, mouse IgG1, kappa, copies: 2 + 2) heavy: QVQLQESGPGLVKPSETLSLTCAVSGHSISHDHAWSWVRQPPGEGLEWIGFISYSGITNYNPSLQGRVTISRDNSKNTLYLQMNSLRAEDTAVYYCARSLARTTAMDYWGEGTLVTVSSAKTTPPSVYPLAPGSAAQTNSMVTLGCLVKGYFPEPVTVTWNSGSLSSGVHTFPAVLQSDLYTLSSSVTVPSSTWPSETVTCNVAHPASSTKVDKKIVPRDCGCKPCICEPNEVEMVFIFPPKPKDVLTITLTPKVTCVVVDISKDDPEVQFSWFVDDVEVHTAQTQPREEQFNSTFRSVSELPIMHQDWLNGKEFKCRVDSDAFPAPIEKTISKTKGRPKAPQVYTIPPPKEQMAKDKVSLTCMITDFFPEDITVEWQWNGQPAENYKNTQPIMDTDGSYFVYSKLNVQKSNWEAGNTFTCSVLHEGLHNHHTEKSLSHSPGK light: not shown	0.547	384 fold vs H237-mIgG1/MRAL-k0	83.3	3.4 fold vs H237-mIgG1/MRAL-k0
H237-MB536/MRAL-k0 (antibody, mouse IgG1, kappa, copies: 2 + 2) heavy: QVQLQESGPGLVKPSETLSLTCAVSGHSISHDHAWSWVRQPPGEGLEWIGFISYSGITNYNPSLQGRVTISRDNSKNTLYLQMNSLRAEDTAVYYCARSLARTTAMDYWGEGTLVTVSSAKTTPPSVYPLAPGSAAQTNSMVTLGCLVKGYFPEPVTVTWNSGSLSSGVHTFPAVLQSDLYTLSSSVTVPSSTWPSETVTCNVAHPASSTKVDKKIVPRDCGCKPCICQPNEVEEVFIFPPKPKDVLTITLTPKVTCVVVDISKDDPEVQFSWFVDDVEVHTAQTQPREEQFNSTFRSVSELPIMHQDWLNGKEFKCRVDSDAFPAPIERTISKTKGRPKAPQVYTIPPPKEQMAKDKVSLTCMITDFFPEDITVEWQWNGQPAENYKNTQPIMDTDGSYFVYSKLNVQKSNWEAGNTFTCSVLHEGLHNHHTEKSLSHSPGK light: not shown	0.53	396 fold vs H237-mIgG1/MRAL-k0	36.8	7.7 fold vs H237-mIgG1/MRAL-k0
H237-MB538/MRAL-k0 (antibody, mouse IgG1, kappa, copies: 2 + 2) heavy: QVQLQESGPGLVKPSETLSLTCAVSGHSISHDHAWSWVRQPPGEGLEWIGFISYSGITNYNPSLQGRVTISRDNSKNTLYLQMNSLRAEDTAVYYCARSLARTTAMDYWGEGTLVTVSSAKTTPPSVYPLAPGSAAQTNSMVTLGCLVKGYFPEPVTVTWNSGSLSSGVHTFPAVLQSDLYTLSSSVTVPSSTWPSETVTCNVAHPASSTKVDKKIVPRDCGCKPCICEPNEVEMVFIFPPKPKDVLTITLTPKVTCVVVDISKDDPEVQFSWFVDDVEVHTAQTQPREEQFNLTFRSVSELPIMHQDWLNGKEFKCRVNSAAFPAPIEKTISKTKGRPKAPQVYTIPPPKEQMAKDKVSLTCMITDFFPEDITVEWQWNGQPAENYKNTQPIMDTDGSYFVYSKLNVQKSNWEAGNTFTCSVLHEGLHNHHTEKSLSHSPGK light: not shown	2.44	86.2 fold vs H237-mIgG1/MRAL-k0	164	1.7 fold vs H237-mIgG1/MRAL-k0
H237-MB540/MRAL-k0 (antibody, mouse IgG1, kappa, copies: 2 + 2) heavy: QVQLQESGPGLVKPSETLSLTCAVSGHSISHDHAWSWVRQPPGEGLEWIGFISYSGITNYNPSLQGRVTISRDNSKNTLYLQMNSLRAEDTAVYYCARSLARTTAMDYWGEGTLVTVSSAKTTPPSVYPLAPGSAAQTNSMVTLGCLVKGYFPEPVTVTWNSGSLSSGVHTFPAVLQSDLYTLSSSVTVPSSTWPSETVTCNVAHPASSTKVDKKIVPRDCGCKPCICEPNEVEMVFIFPPKPKDVLTITLTPKVTCVVVDISKDDPEVQFSWFVDDVEVHTAQTQPREEQFNLTFRSVSELPIMHQDWLNGKEFKCRVNSDAFPAPIEKTISKTKGRPKAPQVYTIPPPKEQMAKDKVSLTCMITDFFPEDITVEWQWNGQPAENYKNTQPIMDTDGSYFVYSKLNVQKSNWEAGNTFTCSVLHEGLHNHHTEKSLSHSPGK light: not shown	1.41	149 fold vs H237-mIgG1/MRAL-k0	99.4	2.8 fold vs H237-mIgG1/MRAL-k0
H237-MB537/MRAL-k0 (antibody, mouse IgG1, kappa, copies: 2 + 2) heavy: QVQLQESGPGLVKPSETLSLTCAVSGHSISHDHAWSWVRQPPGEGLEWIGFISYSGITNYNPSLQGRVTISRDNSKNTLYLQMNSLRAEDTAVYYCARSLARTTAMDYWGEGTLVTVSSAKTTPPSVYPLAPGSAAQTNSMVTLGCLVKGYFPEPVTVTWNSGSLSSGVHTFPAVLQSDLYTLSSSVTVPSSTWPSETVTCNVAHPASSTKVDKKIVPRDCGCKPCICQPNEVEEVFIFPPKPKDVLTITLTPKVTCVVVDISKDDPEVQFSWFVDDVEVHTAQTQPREEQFNLTFRSVSELPIMHQDWLNGKEFKCRVDSDAFPAPIERTISKTKGRPKAPQVYTIPPPKEQMAKDKVSLTCMITDFFPEDITVEWQWNGQPAENYKNTQPIMDTDGSYFVYSKLNVQKSNWEAGNTFTCSVLHEGLHNHHTEKSLSHSPGK light: not shown	0.412	510 fold vs H237-mIgG1/MRAL-k0	31.7	8.9 fold vs H237-mIgG1/MRAL-k0
H237-MB544/MRAL-k0 (antibody, mouse IgG1, kappa, copies: 2 + 2) heavy: QVQLQESGPGLVKPSETLSLTCAVSGHSISHDHAWSWVRQPPGEGLEWIGFISYSGITNYNPSLQGRVTISRDNSKNTLYLQMNSLRAEDTAVYYCARSLARTTAMDYWGEGTLVTVSSAKTTPPSVYPLAPGSAAQTNSMVTLGCLVKGYFPEPVTVTWNSGSLSSGVHTFPAVLQSDLYTLSSSVTVPSSTWPSETVTCNVAHPASSTKVDKKIVPRDCGCKPCICEPNEVEMVFIFPPKPKDVLTITLTPKVTCVVVDISKDDPEVQFSWFVDDVEVHTAQTQPREEQFNSTFRSVSELPIMHQDWLNGKEFKCRVNSDAFPAPIERTISKTKGRPKAPQVYTIPPPKEQMAKDKVSLTCMITDFFPEDITVEWQWNGQPAENYKNTQPIMDTDGSYFVYSKLNVQKSNWEAGNTFTCSVLHEGLHNHHTEKSLSHSPGK light: not shown	0.76	276 fold vs H237-mIgG1/MRAL-k0	87.2	3.2 fold vs H237-mIgG1/MRAL-k0
